Data on one molecule can be found in publication doi:10.1101/2024.10.02.616253 (bioRxiv, 2024).

For the experiment, the target named is BTN3A1 ectodomain (human, UniProt O00481). Kind of experiment: SPR. For orientation: In SPR one partner is held on a chip, and binding of the other changes the refractive index at the surface.
Sequence of BTN3A1 ectodomain (O00481 30-254): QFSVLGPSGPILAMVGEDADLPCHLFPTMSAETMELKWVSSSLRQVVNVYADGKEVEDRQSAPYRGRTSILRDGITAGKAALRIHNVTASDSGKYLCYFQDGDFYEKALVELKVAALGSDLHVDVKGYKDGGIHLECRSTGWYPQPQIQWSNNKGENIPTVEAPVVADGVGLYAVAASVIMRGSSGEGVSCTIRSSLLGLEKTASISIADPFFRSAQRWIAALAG

B1: TH001 monoclonal antibody (antibody, V domains shown)
VH: EVHVKQSGAELARPGTSVKLSCKASGYTFTDYYLNWVKQRTGQGLEWIGEIYPGGGNTYYNEKFKGKATLTADKSSSTAYMQLSSLTSEDSAVYFCARRTTVVGDYWGQGTTLTVSS
VL: DVLMTQTPLSLPVSLGDQASISCRSSQSIVNSKGNTYLEWYVQKPGQSPKLLIYKVSNRFSGVPDRFSGSGSGTDFTLKISRVEAEDLGVYYCFQGSHVPWTFGGGTKLEIK
Take B1: the binding result was “binds”.
